Here are results for 67 sequences from the supplement of paper PMC10724198.

In this data set the test system is Saccharomyces cerevisiae. Kind of data set: protein stability index of tFT-peptide fusion (C-terminal peptide) (PSI (0-1 scale)); higher = more stable (slower turnover). To be noted: temperature: 30 C. As to the method: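 MPS profiling in S. cerevisiae of the yeast C-terminome library: the last 12 aa of each annotated ORF are fused to the C-terminus of a sfGFP-mCherry timer, after a GGGS linker. Cells are FACS-sorted into 8 mCherry/sfGFP bins and deep-sequenced. PSI runs from 0 (unstable) to 1 (stable); wild type and das1Δ backgrounds, two technical replicates each.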

Where [1] appears, read: genetic background: das1 deletion.

± gives the standard deviation of the averaged measurements.

Take KNSNLSPTQIEL [SSK1 C-terminal 12 aa]: the protein stability index under setting [1] stood at 0.7083 ± 0.0012 and the protein stability index (genetic background: wild type) amounted to 0.693 ± 0.024.
Consider KPFYYKIYRFWC [SAM3 C-terminal 12 aa], for which the protein stability index is 0.735 ± 0.024 under setting [1] and 0.3886 ± 0.0019 (genetic background: wild type).
In the case of KPGGSKKRKTKA [RFC1 C-terminal 12 aa], the protein stability index was determined as 0.729 ± 0.011 under setting [1] and 0.747 ± 0.15 (genetic background: wild type).
As to KPGLTVYSIELL [SMP3 C-terminal 12 aa], the protein stability index is 0.6898 ± 0.0048 under setting [1] and 0.692 ± 0.011 (genetic background: wild type).
The sequence KPMAYSNGGFGL [PPT1 C-terminal 12 aa] came in with a protein stability index under setting [1] of 0.674 ± 0.015 and a protein stability index (genetic background: wild type) of 0.668 ± 0.015.
KQAQEGTKNLKI [PAC10 C-terminal 12 aa]: the protein stability index runs as follows: under setting [1], 0.714 ± 0.055; (genetic background: wild type) 0.666 ± 0.029.
Take “KQRFLLCWSTKL [YHR131W-A C-terminal 12 aa]”: the protein stability index runs as follows: under setting [1], 0.693 ± 0.034; (genetic background: wild type) 0.55 ± 0.04.
As to KQYSSPEICFRV [YBR134W C-terminal 12 aa], the protein stability index under setting [1] was found to be 0.692 ± 0.029 and the protein stability index (genetic background: wild type) was 0.663 ± 0.014.
The corresponding values for KRAENNAQKKTN [ERG25 C-terminal 12 aa] are 0.689 ± 0.019 and 0.495 ± 0.0083.
The corresponding values for KRRPYVRAHAKW [YGR051C C-terminal 12 aa] are 0.7089 ± 0.0043 and 0.698 ± 0.05.
As to “KRRSDSKESRKL [YPR145C-A C-terminal 12 aa]”, the protein stability index worked out at 0.713 ± 0.037 under setting [1] and 0.673 ± 0.03 (genetic background: wild type).
The sequence KSQISVSFYRDN [YPR027C C-terminal 12 aa] returned a protein stability index under setting [1] of 0.704 ± 0.04 and a protein stability index (genetic background: wild type) of 0.6736 ± 0.0023.
Take KSVRIAIDKPIR [ALD5 C-terminal 12 aa]: the protein stability index runs as follows: under setting [1], 0.696 ± 0.026; (genetic background: wild type) 0.666 ± 0.018.
In turn, KTGKKNKVAKKN [SRP14 C-terminal 12 aa] yielded a protein stability index under setting [1] of 0.682 ± 0.0078 and a protein stability index (genetic background: wild type) of 0.692 ± 0.021.
Consider “KTHRSRSSRKGN [YMR135W-A C-terminal 12 aa]”, for which the protein stability index reads like this: under setting [1], 0.6834 ± 0.0026; (genetic background: wild type) 0.704 ± 0.023.
On the same counts, the results for KTQDYGKKYNSG [SIZ1 C-terminal 12 aa] are 0.69 ± 0.018 and 0.727 ± 0.0097.
As for KTVSDEEYAYIV [APM2 C-terminal 12 aa], the protein stability index was 0.6901 ± 0.0029 under setting [1] and 0.707 ± 0.011 (genetic background: wild type).
As for KTVSPNWEVKEL [CYM1 C-terminal 12 aa], the protein stability index under setting [1] amounted to 0.6828 ± 0.0036 and the protein stability index (genetic background: wild type) amounted to 0.702 ± 0.019.
As for KTYIKNDVEIFN [HBN1 C-terminal 12 aa], the protein stability index is, setting by setting: under setting [1], 0.715 ± 0.025; (genetic background: wild type) 0.726 ± 0.067.
With KVNGDIYRLPPS [MBA1 C-terminal 12 aa], the protein stability index is, setting by setting: under setting [1], 0.6888 ± 0.001; (genetic background: wild type) 0.677 ± 0.0092.
Consider KVRTQSKQPQEE [SAW1 C-terminal 12 aa], for which the protein stability index is, setting by setting: under setting [1], 0.682 ± 0.021; (genetic background: wild type) 0.673 ± 0.026.
Regarding KVSPADAAKKAL [RPS26A C-terminal 12 aa], the protein stability index under setting [1] was found to be 0.704 ± 0.0096 and the protein stability index (genetic background: wild type) is 0.718 ± 0.02.
The corresponding values for KVTSANEHTSAV [PEX27 C-terminal 12 aa] are 0.689 ± 0.011 and 0.697 ± 0.013.
On to KWGLSKKDGRQA [SLY41 C-terminal 12 aa], for which the protein stability index runs as follows: under setting [1], 0.699 ± 0.034; (genetic background: wild type) 0.7036 ± 0.0043.
In the case of KWLWRELEESSL [OCA5 C-terminal 12 aa], the protein stability index is, setting by setting: under setting [1], 0.745 ± 0.018; (genetic background: wild type) 0.7234 ± 0.0014.
The corresponding values for KYKFYDDENLTE [SOL1 C-terminal 12 aa] are 0.72 ± 0.017 and 0.733 ± 0.081.
For the sequence KYRRQVRYTQRT [YGL052W C-terminal 12 aa], the protein stability index came out at 0.708 ± 0.0075 under setting [1] and 0.698 ± 0.013 (genetic background: wild type).
For the sequence KYYETVGKADII [AIM36 C-terminal 12 aa], the protein stability index turned out to be 0.68805 ± 0.00047 under setting [1] and 0.697 ± 0.025 (genetic background: wild type).
As for LADAGHLWHSIT [YNL120C C-terminal 12 aa], the protein stability index under setting [1] is 0.746 ± 0.02 and the protein stability index (genetic background: wild type) turned out to be 0.6128 ± 0.00091.
The corresponding values for LADLRVYLRVPG [YGL088W C-terminal 12 aa] are 0.565 ± 0.021 and 0.568 ± 0.013.
The corresponding values for LAFIAACKKYIY [IKS1 C-terminal 12 aa] are 0.696 ± 0.023 and 0.487 ± 0.026.
On the same counts, the results for LAITIAALCASL [EXG2 C-terminal 12 aa] are 0.55 ± 0.0069 and 0.572 ± 0.018.
Regarding LAPLQFSGIVRS [YDR274C C-terminal 12 aa], the protein stability index was 0.6773 ± 0.0022 under setting [1] and 0.682 ± 0.045 (genetic background: wild type).
Sequence LAVEETIGFGQE [RSP5 C-terminal 12 aa] gave a protein stability index under setting [1] of 0.7037 ± 0.0066 and a protein stability index (genetic background: wild type) of 0.692 ± 0.011.
LAWNPNLSAKRF [PRP46 C-terminal 12 aa] came in with a protein stability index under setting [1] of 0.71 ± 0.031 and a protein stability index (genetic background: wild type) of 0.705 ± 0.021.
The sequence LDDTPAPTATNL [NUD1 C-terminal 12 aa] had a protein stability index under setting [1] of 0.6857 ± 0.0035 and a protein stability index (genetic background: wild type) of 0.701 ± 0.034.
The corresponding values for LDIFCLIFRKRT [YPR076W C-terminal 12 aa] are 0.508 ± 0.031 and 0.5061 ± 0.00095.
The corresponding values for LDSVFSKFCIGK [MSS1 C-terminal 12 aa] are 0.7 ± 0.0095 and 0.703 ± 0.082.
On the same counts, the results for LEEETLPPSQKK [PYC2 C-terminal 12 aa] are 0.694 ± 0.013 and 0.647 ± 0.02.
Take LEFVRGGSRQFT [TIM44 C-terminal 12 aa]: the protein stability index runs as follows: under setting [1], 0.689 ± 0.0081; (genetic background: wild type) 0.713 ± 0.02.
The sequence LEKHTASDTSCI [YAL066W C-terminal 12 aa] showed a protein stability index under setting [1] of 0.727 ± 0.025 and a protein stability index (genetic background: wild type) of 0.692 ± 0.072.
With LENIKKAKEFFQ [GTR1 C-terminal 12 aa], the protein stability index is 0.726 ± 0.012 under setting [1] and 0.705 ± 0.027 (genetic background: wild type).
On to LERLRYLFPNYW [MEU1 C-terminal 12 aa], for which the protein stability index runs as follows: under setting [1], 0.738 ± 0.016; (genetic background: wild type) 0.717 ± 0.051.
The corresponding values for “LFFQDIERFFSC [YMR194C-A C-terminal 12 aa]” are 0.7717 ± 0.0042 and 0.7619 ± 0.0028.
On to LHVISKVAGKLF [SBH1 C-terminal 12 aa], for which the protein stability index stood at 0.703 ± 0.022 under setting [1] and 0.656 ± 0.014 (genetic background: wild type).
For the sequence LIDLCCSCAGGM [MNC1 C-terminal 12 aa], the protein stability index runs as follows: under setting [1], 0.685 ± 0.012; (genetic background: wild type) 0.643 ± 0.0049.
Take “LIPELYSVLDGF [YDL007C-A C-terminal 12 aa]”: the protein stability index is, setting by setting: under setting [1], 0.7449 ± 0.0037; (genetic background: wild type) 0.74 ± 0.051.
Turning to LISEFQKKQAKK [MEF1 C-terminal 12 aa], the protein stability index runs as follows: under setting [1], 0.7194 ± 0.0033; (genetic background: wild type) 0.691 ± 0.038.
For LKDNLAKPKTRR [VBA2 C-terminal 12 aa], the protein stability index under setting [1] was found to be 0.715 ± 0.0088 and the protein stability index (genetic background: wild type) was found to be 0.708 ± 0.031.
The corresponding values for LKILRQKMNHQN [ATG1 C-terminal 12 aa] are 0.686 ± 0.013 and 0.207 ± 0.042.
The sequence LKNGDKPHLLKF [RPL6B C-terminal 12 aa] registered a protein stability index under setting [1] of 0.714 ± 0.038 and a protein stability index (genetic background: wild type) of 0.686 ± 0.015.
In the case of LKRVVTKAMSSR [SSB1 C-terminal 12 aa], the protein stability index is, setting by setting: under setting [1], 0.714 ± 0.012; (genetic background: wild type) 0.6864 ± 0.0039.
LKSGEKESNASK [SDC1 C-terminal 12 aa] came in with a protein stability index under setting [1] of 0.678 ± 0.0026 and a protein stability index (genetic background: wild type) of 0.652 ± 0.013.
In the case of LLCFRPTRGCGP [YCL041C C-terminal 12 aa], the protein stability index under setting [1] amounted to 0.7091 ± 0.0046 and the protein stability index (genetic background: wild type) is 0.687 ± 0.013.
Turning to LLDAIELYQRHK [HEM4 C-terminal 12 aa], the protein stability index is 0.698 ± 0.017 under setting [1] and 0.6704 ± 0.0026 (genetic background: wild type).
In the case of LLEDLRSRIDLD [MLO50 C-terminal 12 aa], the protein stability index came out at 0.685 ± 0.048 under setting [1] and 0.744 ± 0.087 (genetic background: wild type).
Turning to LLHTVMNENKLP [LST7 C-terminal 12 aa], the protein stability index reads like this: under setting [1], 0.716 ± 0.03; (genetic background: wild type) 0.687 ± 0.054.
The corresponding values for LLILLVLFSKFK [VTI1 C-terminal 12 aa] are 0.295 ± 0.02 and 0.302 ± 0.0073.
Consider LMESEREARRLR [RPS28A C-terminal 12 aa], for which the protein stability index reads like this: under setting [1], 0.708 ± 0.01; (genetic background: wild type) 0.6762 ± 0.0022.
Consider LMKLFKSSKFSK [GEM1 C-terminal 12 aa], for which the protein stability index is, setting by setting: under setting [1], 0.724 ± 0.024; (genetic background: wild type) 0.694 ± 0.077.
Regarding LMVPDPWYREGN [FAB1 C-terminal 12 aa], the protein stability index is, setting by setting: under setting [1], 0.726 ± 0.018; (genetic background: wild type) 0.721 ± 0.031.
In the case of LNDLSNVRHSKT [HER1 C-terminal 12 aa], the protein stability index worked out at 0.6893 ± 0.0035 under setting [1] and 0.675 ± 0.022 (genetic background: wild type).
As for LNNLSMERSIRL [GIP3 C-terminal 12 aa], the protein stability index was determined as 0.715 ± 0.015 under setting [1] and 0.666 ± 0.014 (genetic background: wild type).
Take LNRKWYTRFFFP [MNN10 C-terminal 12 aa]: the protein stability index reads like this: under setting [1], 0.732 ± 0.012; (genetic background: wild type) 0.702 ± 0.035.
Sequence LPIWDPMGALAK [LAP3 C-terminal 12 aa] returned a protein stability index under setting [1] of 0.703 ± 0.0072 and a protein stability index (genetic background: wild type) of 0.739 ± 0.06.
Regarding LPKPAGWQNHIG [KTR1 C-terminal 12 aa], the protein stability index worked out at 0.7014 ± 0.0053 under setting [1] and 0.68 ± 0.009 (genetic background: wild type).
The corresponding values for LPNTISSETFLK [SCEI C-terminal 12 aa] are 0.661 ± 0.0076 and 0.702 ± 0.018.
